Measurements from publication PMC8446450, “Autosomal Recessive Cutis Laxa 1C Mutations Disrupt the Structure and Interactions of Latent TGFβ Binding Protein-4” (Frontiers in Genetics, 2021).

T1: Tropoelastin (SHELdelta26A) (biotin where immobilised on streptavidin biosensors (position not given))
T1 chain: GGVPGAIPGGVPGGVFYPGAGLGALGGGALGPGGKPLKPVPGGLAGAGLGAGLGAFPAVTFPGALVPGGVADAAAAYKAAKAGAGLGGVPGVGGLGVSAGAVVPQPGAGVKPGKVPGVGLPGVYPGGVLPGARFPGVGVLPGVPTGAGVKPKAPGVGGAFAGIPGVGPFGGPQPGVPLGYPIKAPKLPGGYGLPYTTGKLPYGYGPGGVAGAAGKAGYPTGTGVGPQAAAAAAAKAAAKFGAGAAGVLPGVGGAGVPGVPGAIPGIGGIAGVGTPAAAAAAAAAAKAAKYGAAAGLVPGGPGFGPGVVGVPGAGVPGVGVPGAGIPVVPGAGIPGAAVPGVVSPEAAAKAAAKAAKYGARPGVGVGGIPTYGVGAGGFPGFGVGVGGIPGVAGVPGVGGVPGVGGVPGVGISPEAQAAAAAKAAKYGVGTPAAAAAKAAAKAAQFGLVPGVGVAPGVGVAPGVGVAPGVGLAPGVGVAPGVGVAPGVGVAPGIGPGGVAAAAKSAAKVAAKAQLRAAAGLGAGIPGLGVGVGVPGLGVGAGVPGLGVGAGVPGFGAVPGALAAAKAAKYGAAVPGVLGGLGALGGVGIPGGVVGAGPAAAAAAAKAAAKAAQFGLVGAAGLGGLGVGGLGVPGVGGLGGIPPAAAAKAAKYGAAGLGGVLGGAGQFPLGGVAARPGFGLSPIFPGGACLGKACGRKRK

B1: Latent TGFβ binding protein-4 (LTBP4S) C-terminal region, ARCL1C mutant C1186R (domain or fragment)
chain: RECYFDTAAPDACDNILARNVTWQECCCTVGEGWGSGCRIQQRPGTETAEYQSLCPHGRGYLAPSGDLSLRRDVDECQLFRDQVCKSGVCVNTAPGYSCYCSNGYYYHTQRLECIDNDECADEEPACEGGRCVNTVGSYHCTCEPPLVLDGSQRRCVSNESQSLDDNLGVCWQEVGADLVCSHPRLDRQATYTECCCLYGEAWGMDCALCPAQDSDDFEALCNVLRPPAYSPPRPGGFGLPYEYGPDLGPPYQGLPYGPELYPPPALPYDPYPPPPGPFARREAPYGAPRFDMPDFEDDGGPYGESEAPAPPGPGTRWPYRSRDTRRSFPEPEEPPEGGSYAGSLAEPYEELEAEECGILDGCTNGRCVRVPEGFTCRCFDGYRLDMTRMACVDINECDEAEAASPLCVNARCLNTDGSFRCICRPGFAPTHQPHHCAPARPRA

Tests used:
[1] = biological target: Latent TGFβ binding protein-4 (LTBP4S) C-terminal region, ARCL1C mutant C1186R (human); assay: SPR; ProteOn, LTBP4 C-terminal constructs amine-coupled on GLC chip, fibrillin-1 PF3 injected 100-3.1 nM, 10 mM HEPES, 150 mM NaCl, pH 7.4, 0.005% Tween-20, 25°C; steady state (equilibrium) analysis
[2] = biological target: T1, Tropoelastin (SHELdelta26A); assay: BLI
[3] = biological target: Tropoelastin (SHELdelta26A); assay: BLI; OctetRED96, biotinylated tropoelastin on streptavidin biosensors, LTBP4 C-terminal constructs 375-23.4 nM, 10 mM HEPES, 150 mM NaCl, pH 7.4, 0.005% Tween-20, 25°C; steady state analysis

| Molecule | Kd [1] | Kd [2] | Kd [3] |
| --- | --- | --- | --- |
| Fibrillin-1 PF3 fragment (from UniProt P35555 45-722) (domain or fragment) | 40.2 nM | – | – |
| B1 | – | 55.9 nM | 154 nM |
